Data set [1] is described as follows: Pharmacokinetics after s.c. administration in rat (plasma concentration by anti-Xa activity). It is filed as in vivo, male Wistar rats. The settings on record: male, Wistar, sc, 500 nmol/kg. The procedure:
The pharmacokinetic properties of compound 3 were studied in male Wistar rats of 300-400 gr. The rats were anaesthetized by inhalation of a mixture of O2/N2O/isoflurane, after which the right jugular vein was cannulated. The next day rats were treated s.c. with doses of 100 or 500 nmol/kg. After s.c. administration, blood was sampled at several time intervals. Then the blood was centrifuged after which the plasma was siphoned off and stored at −20° C. until use. The concentration of the tested compound was measured amidolytically with S2222 (Chromogenix, Chromogenics Ltd, Molndal, Sweden) by determination of the anti-Xa activity based on the method of Teien and Lie in the obtained plasma samples against a calibration curve which was made of the stock solution of the tested compound itself. (Teien A N, Lie M. Evaluation of an amidolytic heparin assay method increased sensitivity by adding purified antithrombin III. Thromb. Res. 1977, 10: 399-410). The concentration in the samples was expressed in nmol/mL and the kinetic parameters were calculated with the noncompartment model of WinNonlin.

The test system of data set [2] is human platelet aggregation induced by ADP. Briefly: In vitro test for inhibition of human platelet aggregation induced by ADP (platelet rich plasma). It is filed as cell-based. Conditions: read-out: IC50, inhibition of human platelet aggregation induced by 5 μM ADP. The procedure: • 1. Sysmex blood cell counter model KX-21. • 2. […] Absorption is measured with the Labsystems iEMS program. • 3. Blood collection system 600 mL with needle, art P4203 (NPBI). • 4.
The optical density (OD620) is then measured at 620 nm. […] This is to verify the stability of the platelets (absence of spontaneous platelet aggregation). […] Between two measurements, the plate is shaking for 40 seconds at 1,000 rpm. Each test compound is investigated in at least 2 experiments using PRP from different volunteers.
The mean OD at each compound concentration (including vehicle) is calculated at t=0 min and t=10 min. The percentage inhibition at each concentration is calculated using the formula: […]

The subject of data set [3] is human platelet aggregation induced by TRAP. Briefly: In vitro test for inhibition of human platelet aggregation induced by TRAP (washed platelets). It is filed as cell-based. The settings on record: read-out: IC50, inhibition of human platelet aggregation induced by 5 μM TRAP. The procedure:
This aggregation can be determined by measuring the optical density of the WPL. The in vitro test described here is used to analyze the activity of a test compound to inhibit TRAP-induced aggregation of human platelets. […] Between two measurements, the plate is shaking for 40 seconds at 1,000 rpm.

Experimental findings from patent US20090111769A1, “Antithrombotic Compound” (priority 2005, published 2009) are described below.

What is called Tmax is the time from dosing to the highest level. What is called AUC(0-inf) is the area under the concentration-time curve extrapolated to infinity. Usually Cmax stands for the maximum level reached in the sampled fluid or tissue. For orientation: IC50 means the point on the concentration scale where inhibition reaches its midpoint.

Structures can show the parent of a compound that is named as a salt.

Regarding `CO[C@H]1O[C@H](COS(=O)(=O)O)[C@@H](O[C@@H]2O[C@@H](C(=O)O)[C@@H](O[C@H]3O[C@H](COS(=O)(=O)O)[C@@H](O[C@@H]4O[C@H](C(=O)O)[C@@H](O[C@H]5O[C@H](COS(=O)(=O)O)[C@@H](OCCOCCOCCOCCNC(=O)COCCOCCOCCOCCNC(=O)c6cccc(S(=O)(=O)N[C@@H](Cc7ccc(OCCCCC8CCNCC8)cc7)C(=O)O)c6)[C@H](OC)[C@H]5OC)[C@H](OC)[C@H]4OC)[C@H](OS(=O)(=O)O)[C@H]3OS(=O)(=O)O)[C@H](OC)[C@H]2OC)[C@H](OS(=O)(=O)O)[C@H]1OS(=O)(=O)O` [Compound 3, sodium salt], the Tmax in data set [1] (n = 3) amounted to 2.5 h. Besides, in data set [1] (n = 3, mean ± s.e.m.), the AUC(0-inf) was found to be 75.3 ± 3.2 µM·h and the peak level (Cmax) was 5 ± 0.4 µM. Further, the half-life in data set [1] (n = 3, mean ± s.e.m., read-out: T½ eli (converted)) is 9.3 ± 0.2 h.
As for `CCCCS(=O)(=O)N[C@@H](Cc1ccc(OCCCCC2CCNCC2)cc1)C(=O)O` [tirofiban], the IC50 in data set [2] and in data set [3] was 30 to 60 nM throughout.
